Consider four molecules from US20240132603A1 (HARBOUR BIOMED US, published 2024).

For test [1], the target named is T1, human CCR8 (human, UniProt P51685 1-355).
T1 construct: whole, on cells; construct used for the overexpressing cell lines is not described; also called hCCR8
Kind of test: FACS, CHO-K1-hCCR8 cells. A digest of the protocol: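 Anti-CCR8 antibodies, in 5-fold serial dilution from 200 nM in DPBS with 2% FBS, were bound to detached cells for 1 h at 4 °C. A 1:1000 secondary antibody followed for 40 min at 4 °C, and binding was read by flow cytometry.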

Test [2] addresses T2, cynomolgus monkey CCR8 (cynomolgus monkey, UniProt G7NYJ2 1-355).
T2 construct: whole, on cells; also called CynoCCR8
Kind of test: FACS, CHO-K1-CynoCCR8 cells. The gist of the method:
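Anti-CCR8 antibodies titrated in 5-fold steps from 200 nM onto 1E6 cells/mL CHO-K1-CynoCCR8 in DPBS/2% FBS, 1 h at 4 °C. Bound antibody detected with 1:1000 secondary antibody, 40 min at 4 °C, then flow cytometry.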

The target in test [3] is T1, human CCR8. Kind of test: KinExA, cell line overexpressing human CCR8; human CCR8 cell line. As for the experimental part:
(§1) To 200 mg of PMMA hard beads was added 30 μg of Goat Anti-Human IgG Fc antibody, and the mixture was supplemented with a coating solution to 1.0 mL, with a buffer composition of 1×PBS, pH7.4, to ensure that the beads were completely suspended in the solution. After being spun at room temperature for 2 h, the beads were either allowed to settle naturally or centrifuged briefly at low speed, and the supernatant was removed. 1 mL of blocking buffer (1×PBS, pH7.4, containing 10 mg/mL BSA) was added to ensure that the beads were resuspended in the blocking solution, and the beads were spun at room temperature for 1 h. An appropriate concentration of PR005565, PR006155 or PR006166 was used as the 100% signal value, and PBS blank was used as the background value. The net signal values were detected using 0.5 μg/mL Alexa Fluor® 647 Goat Anti-Human IgG. The cell line overexpressing human or monkey CCR8 was collected by centrifugation at 1500 g for 5 min, washed 2 times with 2 PBS and centrifuged at 350 g. The cells were collected in a 1.5 mL centrifuge tube. 10 mL of 0.2 nM PR005565, PR006155 or PR006166 solution was prepared. The total cells were supplemented with 0.2 nM PR005565, PR006155 or PR006166 solution to 0.82 mL, and diluted in a 2-fold gradient with 0.2 nM PR005565, PR006155 or PR006166 as a buffer. […]
(Kinetic exclusion samples the free partner from a solution-phase mixture.)

The target of test [4] is T3, TSPAN4-FLAG (UniProt O14817 1-238, limits assumed).
T3 construct: whole, on cells; order of protein and tag unknown; also called HEK293-TSPAN4; not shown: FLAG tag
T3 sequence (looked up): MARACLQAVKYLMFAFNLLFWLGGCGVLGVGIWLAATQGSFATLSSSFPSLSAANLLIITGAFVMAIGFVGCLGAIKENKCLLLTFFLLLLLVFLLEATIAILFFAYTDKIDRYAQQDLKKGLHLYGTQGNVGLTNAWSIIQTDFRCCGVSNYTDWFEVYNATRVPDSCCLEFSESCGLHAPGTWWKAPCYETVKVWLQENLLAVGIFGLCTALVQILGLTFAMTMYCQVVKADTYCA
Kind of test: flow cytometry, HEK293-TSPAN4 cells. On the technique in general: Flow cytometry measures light scatter and fluorescence of single cells or particles in a stream.

Test [5] has as its target T4, TSPAN12-FLAG (UniProt O95859 1-305).
T4 construct: whole, on cells; order of protein and tag unknown; also called HEK293-TSPAN12; not shown: FLAG tag
T4 sequence (looked up): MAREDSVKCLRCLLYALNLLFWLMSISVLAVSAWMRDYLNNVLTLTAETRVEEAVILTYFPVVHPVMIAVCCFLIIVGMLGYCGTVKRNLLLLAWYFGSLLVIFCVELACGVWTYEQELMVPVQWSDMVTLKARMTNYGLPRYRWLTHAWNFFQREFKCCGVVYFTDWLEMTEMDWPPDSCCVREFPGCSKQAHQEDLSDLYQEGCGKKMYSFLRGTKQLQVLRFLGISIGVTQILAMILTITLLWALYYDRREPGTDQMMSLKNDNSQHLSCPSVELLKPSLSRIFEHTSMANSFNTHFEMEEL
Kind of test: flow cytometry, HEK293-TSPAN12 cells. The text has this:
(§2) After that, HEK293 cells were transfected with commercial MMP16 (protein information can be found under Uniprot P51512), CD40LG (protein information can be found under Uniprot P29965), CD147 (protein information can be found under Uniprot P35612), TSPAN4 (protein information can be found under Uniprot 014817), and TSPAN12 (protein information can be found under Uniprot 095859) plasmids for further verification of the binding of PR005565, PR006275 and PR006276 to these proteins. […] However, the binding values of PR005565, PR006275 and PR006276 to MMP16, CD40LG, CD147, TSPAN4 and TSPAN12 after transfection of HEK293 cells were all consistent with the signal values of HEK293 cells themselves. Thus, PR005565, PR006275 and PR006276 had no non-specific binding to MMP16, CD40LG, CD147, TSPAN4 and TSPAN12 proteins (see Table 50).

The target of another test is T5, CD147.
T5 construct: also called HEK293-CD147
Briefly: flow cytometry, HEK293-CD147 cells.

For test [6], the target named is T6, MMP16 (UniProt P51512 120-607).
T6 construct: whole, on cells; also called HEK293-MMP16
T6 sequence (P51512 120-607): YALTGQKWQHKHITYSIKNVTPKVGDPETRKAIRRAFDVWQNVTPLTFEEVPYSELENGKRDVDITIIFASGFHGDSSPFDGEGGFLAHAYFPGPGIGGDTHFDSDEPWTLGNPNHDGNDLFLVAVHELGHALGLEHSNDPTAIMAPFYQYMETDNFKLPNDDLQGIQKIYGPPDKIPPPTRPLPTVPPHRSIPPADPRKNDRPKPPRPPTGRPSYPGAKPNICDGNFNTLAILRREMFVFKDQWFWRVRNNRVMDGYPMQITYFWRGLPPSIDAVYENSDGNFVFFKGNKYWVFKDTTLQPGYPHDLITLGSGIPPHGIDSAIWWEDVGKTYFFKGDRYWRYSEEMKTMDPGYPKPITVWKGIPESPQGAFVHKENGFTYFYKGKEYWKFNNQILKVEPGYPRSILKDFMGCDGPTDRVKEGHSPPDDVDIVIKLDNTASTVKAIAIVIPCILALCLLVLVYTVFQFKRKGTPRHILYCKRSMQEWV
Kind of test: flow cytometry, HEK293-MMP16 cells.

The target in test [7] is T7, CD40LG (UniProt P29965 1-261).
T7 construct: whole, on cells; also called HEK293-CD40LG
T7 sequence (looked up): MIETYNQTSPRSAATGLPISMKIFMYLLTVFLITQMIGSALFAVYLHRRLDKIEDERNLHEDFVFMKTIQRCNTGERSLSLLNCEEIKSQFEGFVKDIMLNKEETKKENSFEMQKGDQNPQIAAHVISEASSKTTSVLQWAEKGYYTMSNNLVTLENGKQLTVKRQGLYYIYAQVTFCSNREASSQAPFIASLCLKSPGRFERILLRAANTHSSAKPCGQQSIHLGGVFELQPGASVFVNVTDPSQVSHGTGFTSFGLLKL
Kind of test: flow cytometry, HEK293-CD40LG cells.

Test [8] has as its target T6, MMP16. Kind of test: flow cytometry, transfected HEK293 cells.
Text: as §2

Test [9] deals with T7, CD40LG. Kind of test: flow cytometry, transfected HEK293 cells.
Text: as §2

In test [10] the target is T3, TSPAN4-FLAG. Kind of test: flow cytometry, transfected HEK293 cells.
Text: as §2

Test [11] deals with T4, TSPAN12-FLAG. Kind of test: flow cytometry, transfected HEK293 cells.
Text: as §2

Test [12] concerns the target T2, cynomolgus monkey CCR8. Briefly: KinExA, cell line overexpressing monkey CCR8; monkey CCR8 cell line. As for the experimental part: as §1

T2 sequence (G7NYJ2 entry or part of it): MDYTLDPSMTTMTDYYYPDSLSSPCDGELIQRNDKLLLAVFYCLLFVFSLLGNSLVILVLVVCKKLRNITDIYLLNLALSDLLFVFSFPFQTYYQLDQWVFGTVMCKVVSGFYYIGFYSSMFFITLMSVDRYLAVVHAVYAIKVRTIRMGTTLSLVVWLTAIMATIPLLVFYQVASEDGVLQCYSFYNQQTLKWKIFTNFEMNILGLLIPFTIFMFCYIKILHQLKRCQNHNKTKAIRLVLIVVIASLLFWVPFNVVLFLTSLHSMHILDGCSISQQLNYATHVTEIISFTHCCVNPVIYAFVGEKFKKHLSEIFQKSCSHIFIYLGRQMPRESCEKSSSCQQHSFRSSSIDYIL
T1 sequence (P51685 whole entry): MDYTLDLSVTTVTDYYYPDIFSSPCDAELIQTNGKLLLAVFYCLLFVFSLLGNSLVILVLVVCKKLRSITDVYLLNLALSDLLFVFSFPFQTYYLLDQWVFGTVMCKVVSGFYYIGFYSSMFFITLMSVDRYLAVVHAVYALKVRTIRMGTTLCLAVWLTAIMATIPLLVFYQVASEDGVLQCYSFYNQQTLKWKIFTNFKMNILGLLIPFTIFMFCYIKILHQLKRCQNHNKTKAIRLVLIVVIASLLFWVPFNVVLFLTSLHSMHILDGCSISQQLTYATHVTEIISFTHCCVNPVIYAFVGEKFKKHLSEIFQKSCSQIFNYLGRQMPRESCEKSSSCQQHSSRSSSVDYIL

B1: PR006155 (antibody, human IgG1, kappa)
heavy: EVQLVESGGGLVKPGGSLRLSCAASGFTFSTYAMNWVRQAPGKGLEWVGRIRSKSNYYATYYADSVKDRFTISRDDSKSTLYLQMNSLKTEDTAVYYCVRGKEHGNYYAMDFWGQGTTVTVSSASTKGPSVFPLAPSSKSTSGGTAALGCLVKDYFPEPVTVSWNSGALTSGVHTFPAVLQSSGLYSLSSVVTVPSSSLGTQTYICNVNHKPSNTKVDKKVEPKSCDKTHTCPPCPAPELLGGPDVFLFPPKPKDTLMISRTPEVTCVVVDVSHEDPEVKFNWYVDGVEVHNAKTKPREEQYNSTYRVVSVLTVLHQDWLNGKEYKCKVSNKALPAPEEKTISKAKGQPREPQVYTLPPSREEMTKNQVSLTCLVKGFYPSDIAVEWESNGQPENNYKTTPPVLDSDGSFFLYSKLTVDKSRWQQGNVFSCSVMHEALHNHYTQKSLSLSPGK
light: DIVMTQSPLSLPVTLGQPASISCRSSKSLLHSNAKIYLYWFQQRPGQSPRLLIYRMSNLASGVPDRFSGSGSGTDFTLKISRVEAEDVGVYYCMQHLEYPLTFGQGTKLEIKRTVAAPSVFIFPPSDEQLKSGTASVVCLLNNFYPREAKVQWKVDNALQSGNSQESVTEQDSKDSTYSLSSTLTLSKADYEKHKVYACEVTHQGLSSPVTKSFNRGEC
As to B1, the EC50 with human CCR8 [1] stood at 0.38 nM; in the test with cynomolgus monkey CCR8 [2] it was 0.39 nM. Moreover, in the test with human CCR8 [3], binding was put at a Kd of 0.0214 nM.

B2: PR006276 (antibody, human IgG1, kappa)
heavy: not shown
light: DIVMTQSPLSLPVTLGQPASISCRSSKSLLHSNAKIYLYWFQQRPGQSPRLLIYRMSNLASGVPDRFSGSGSGTDFTLKISRVEAEDVGVYYCMQHLEYPLTFGQGTKLEIKRTVAAPSVFIFPPSDEQLKSGTASVVCLLNNFYPREAKVQWKVDNALQSGNSQESVTEQDSKDSTYSLSSTLTLSKADYEKHKVYACEVTHQGLSSPVTKSFNRGEC
For B2, the MFI stood at 203 with TSPAN4-FLAG [4]; 185 with TSPAN12-FLAG [5]; 152 in the test with CD147; 160 in the test with MMP16 [6]; 152 with CD40LG [7]. The EC50 was found to be 0.4 nM in the test with human CCR8 [1] and 0.51 nM with cynomolgus monkey CCR8 [2]. Besides, the binding result with MMP16 [8], with CD40LG [9], with TSPAN4-FLAG [10] and with TSPAN12-FLAG [11] was “no binding” in each case.

B3: PR006166 (antibody, human IgG1, kappa)
heavy: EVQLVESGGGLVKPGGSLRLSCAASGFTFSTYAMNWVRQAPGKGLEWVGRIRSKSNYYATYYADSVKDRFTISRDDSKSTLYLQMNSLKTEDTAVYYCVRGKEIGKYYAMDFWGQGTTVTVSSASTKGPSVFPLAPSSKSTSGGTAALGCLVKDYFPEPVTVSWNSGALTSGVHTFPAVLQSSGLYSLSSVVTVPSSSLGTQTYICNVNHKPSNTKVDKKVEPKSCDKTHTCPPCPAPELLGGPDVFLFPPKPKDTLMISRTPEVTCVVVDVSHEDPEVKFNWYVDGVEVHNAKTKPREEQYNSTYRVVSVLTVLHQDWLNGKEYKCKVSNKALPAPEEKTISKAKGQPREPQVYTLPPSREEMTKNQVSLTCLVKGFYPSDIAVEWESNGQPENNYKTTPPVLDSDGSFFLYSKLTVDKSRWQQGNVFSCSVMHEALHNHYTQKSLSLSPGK
light: DIVMTQSPLSLPVTLGQPASISCRSSKSLLHSNAKIYLYWFQQRPGQSPRLLIYRMSNLASGVPDRFSGSGSGTDFTLKISRVEAEDVGVYYCMQHLEYPLTFGQGTKLEIKRTVAAPSVFIFPPSDEQLKSGTASVVCLLNNFYPREAKVQWKVDNALQSGNSQESVTEQDSKDSTYSLSSTLTLSKADYEKHKVYACEVTHQGLSSPVTKSFNRGEC
In the test with cynomolgus monkey CCR8 [12], B3 had a dissociation constant (Kd) of 0.0493 nM. In addition, the EC50 with human CCR8 [1] was determined as 0.49 nM; in the test with cynomolgus monkey CCR8 [2] it was 0.44 nM.

B4: PR006275 (antibody, human IgG1, kappa)
heavy: not shown
light: DIVMTQSPLSLPVTLGQPASISCRSSKSLLHSNAKIYLYWFQQRPGQSPRLLIYRMSNLASGVPDRFSGSGSGTDFTLKISRVEAEDVGVYYCMQHLEYPLTFGQGTKLEIKRTVAAPSVFIFPPSDEQLKSGTASVVCLLNNFYPREAKVQWKVDNALQSGNSQESVTEQDSKDSTYSLSSTLTLSKADYEKHKVYACEVTHQGLSSPVTKSFNRGEC
Consider B4, for which the MFI with TSPAN4-FLAG [4] was determined as 424; in the test with TSPAN12-FLAG [5], 398; in the test with CD147, 362; with MMP16 [6] it was 204; in the test with CD40LG [7] it was 352. Besides, the EC50 worked out at 0.38 nM in the test with human CCR8 [1] and 0.47 nM in the test with cynomolgus monkey CCR8 [2]. For the same molecule, the binding result with MMP16 [8], with CD40LG [9], with TSPAN4-FLAG [10] and with TSPAN12-FLAG [11] was “no binding” throughout.

In general, EC50 refers to the concentration giving half of the maximal effect. A word on the Kd: it is the equilibrium constant for the complex coming apart.
